Experiment: soluble on expression in E. coli; label from the status in PepcDB or PDB records

Row | Sequence | soluble on expression in E. coli
1 | MVMSKYTQEQIKNLVEGNLDWNTVLKMLSMPKDHERFQMYLKVLQDKVDFDDKIVLPLGPHLFVVQDAQKKWVIKCSCGHAFCAPEENWKLHANIYVRDTAEKMEEVYPKLLASDTHWQVYREYICPDCGILLDVEAPTPWYPVIHDFEPDIEVFYKDWLGIQPPERR | not soluble
2 | MAHHHHHHMLHNDKKNPREALDEEKPRKSNPGEVGTHRKARDTKGNKNKSGEGHITKVEGKADCEPHDVKRKGEKDKVLIQCKELQRKELEALKLIYVKDKELAIQNENDEKRDTIIHMHLNDENISDNVINLTFELPKDYPLKSFLLININVKNFTPDMNNYVNQEVYKDMPNYIAHENSILSIIYRINELVENIQNRKETLVDQSYSSSEEREENAEEEAFDSSKDQLIKDHVTFLYCSGMTYSQHRRVLARRLCYSHHILSLVKRTCIIKWAKELKIGGYSKIGYPGIIICEGPKEEVDFYINSLNKLRWKHFDCRGMDDIILKEYEDLDDARVLPKTMYELDPKGMSTLSNICTECGLRDLFLTSMKIYHS | not soluble
3 | MSLSPEGVNGNRCSESFPLLEKYRIGKVIGDGNFAVVKECVDRYTGKEFALKIIDKAKCCGKEHLIENEVSILRRVKHPNIIMLVEEMETATDLFLVMELVKGGDLFDAITSSTKYTERDGSAMVYNLANALRYLHSLSIVHRDIKPENLLVCEYPDGTKSLKLGDFGLATVVEGPLYTVCGTPTYVAPEIIAETGYGLKVDVWAAGVITYILLCGFPPFRSENNLQEDLFDQILAGKLEFPAPYWDNITDSAKELISQMLQVNVEARCTAGEILSHPWVSDDASQENNMQAEVTGKLKQHFNNALPKQNSTTTGVSVIMNTALDKEGQIFCSKLCQDSSRPSREGHHHHHH | not soluble
4 | MNECAFGTKDPVYLNYHDHVWGQPLYDSKALFKLLALESQHAGLSWLTILKKKEAYEEAFYDFEPEKVAQMTAQDIDRLMTFPNIVHHRKKLEAIVNQAQGYLKIEQAYGSFSKFLWSYVNGKPKDLQYEHASDRITVDDTATQLSKDLKQYGFKFLGPVTVFSFLEAAGLYDAHLKDCPSKPKHN | soluble
5 | MSLQTCVLHRLSLPLKFPMRTAHGHIREKQAILVQLVDADGIEGWSECVALAEPTYTEECTDTAWVMLVHHLVPRFARWLRAASQDQDVDPRTVCEALRDVRGNRMSVAAIEMAVWDWYAARTGQPLVGLLGGGRDRVEVSATLGMSESLDVLIQSVDAAVEQGFRRVKLKIAPGRDRAAIKAVRLRYPDLAIAADANGSYRPEDAPVLRQLDAYDLQFIEQPLPEDDWFDLAKLQASLRTPVCLDESVRSVRELKLTARLGAARVLNVKPGRLGGFGATLRALDVAGEAGMAAWVGGMYETGVGRVHGLIAAALPLMRYATDLGPSDRYFEQDVLKEPIAFVEPGVIQVPQCAGVADWVDRDAVRRFSTATWSVDLRTLEGHHHHHH | soluble
6 | MSLTITRIETIPMVAPLAREFRGSHYHMTHRATIVTRVHTDAGIIGEAYTGDEHETMFDIDRIIHEELAPTLIGQDAMAIERLWDSGYKVTFDILRDRRLGLVALAAVNTAIWDAVGKALKMPLWKLWGGYRNELPMIAIGGYYGEPLGSIADEMHNYQELGLAGVKFKVGGLSAAEDAARITAAREAAGDDFIICIDANQGYKPAVAVDLSRRIADLNIRWFEEPVEWHNDKRSMRDVRYQGSVPVCAGQTEFSASGCRDLMETGAIDVCNFDSSWSGGPTAWLRTAAIATSYDVQMGHHEEPQVSTHLLASQPHGTIAECFHPDRDPFWWNMITNRPKLNNGTLTLSDRPGLGWDLNWDYIDQYRVSKDEGHHHHHH | soluble
7 | MGVEQILKRKTGVIVGEDVHNLFTYAKEHKFAIPAINVTSSSTAVAALEAARDSKSPIILQTSNGGAAYFAGKGISNEGQNASIKGAIAAAHYIRSIAPAYGIPVVLHSDHCAKKLLPWFDGMLEADEAYFKEHGEPLFSSHMLDLSEETDEENISTCVKYFKRMAAMDQWLEMEIGITGGEEDGVNNENADKEDLYTKPEQVYNVYKALHPISPNFSIAAAFGNCHGLYAGDIALRPEILAEHQKYTREQVGCKEEKPLFLVFHGGSGSTVQEFHTGIDNGVVKVNLDTDCQYAYLTGIRDYVLNKKDYIMSPVGNPEGPEKPNKKFFDPRVWVREGEKTMGAKITKSLETFRTTNTL | soluble
8 | MQDTDFFSWRRTMLLRFQRMEAAEEAYHEIELQAQQLEYDYYSLCVRHPVPFTRPKVAFYTNYPESWVSYYQAKNFLAIDPVLNPENFSQGHLMWNDDLFSEAQPLWEAAHAHGLRRGVTQYLMLPNRALGFLSFSRCSTREIPILSDELQLKMQLLVRESLMALMRLNDEIVMTPEMNFSKREKEILKWTAEGKTSAEIAMILSITG | not soluble
9 | MSLAQLIFDEEKVTSVIDRIVKRTFQMDFAWDWPGGVAFYGVAEAYEATENEEYINLLKTWVDEQLEDGLPPLSINGVSIGHTLLFLHKVTGDDVYLETAAEMAEYVLHKAPRFGEGILQHTVNAAEYVFPEQAWADTLMMAGLFMLRIGRVMEREDYFEDGLRQFHGHEDVLQDPVTNLYYHAWDNKAQNHLSGIYWGRANGWAALTMAKALPLIEVTHPSFMIIDGSLRDQLSALVRLQDESGLWHTILDDPDSYLEVSASAGIASALMSSGKLYTKYVQKSLAAILDAVEEDGRVSRVSAGTAVMKNAEGYKQVPYKRIQGWGQGLALTFLADVLKTKKRLYQEGHHHHHH | soluble
10 | VTYNLEKRPTTIVLINDTPLNVLLDTGADTSVLTTAHYNRLKYRGRKYQGTGIGGVGGNVETFSTPVTIKKKGRHIKTRMLVADIPVTILGRDILQDLGAKLVL | soluble
11 | MSSISLIQPDRDLFSWPQYWAACFGPAPFLPMSREEMDQLGWDSCDIILVTGDAYVDHPSFGMAICGRMLEAQGFRVGIIAQPDWSSKDDFMRLGKPNLFFGVTAGNMDSMINRYTADRRLRHDDAYTPDNVAGKRPDRATLVYTQRCKEAWKDVPVILGGIEASLRRTAHYDYWSDTVRRSVLVDSKADMLMFGNGERPLVEVAHRLAMGEPISEIRDVRNTAIIVKEALPGWSGVDSTRLDTPGKIDPIPHPYGEDLPCADNKPVAPKKQEAKAVTVQPPRPKPWEKTYVLLPSFEKVKGDKVLYAHASRILHHETNPAVPAH | not soluble
12 | MGSDKIHHHHHHVQESREFILEIAQLNKTYSGNRVLNNINFDLKLGEVHALVGENGAGKSTLIKIIAGVEKPDPGAEILFGGCPAINLNPSKSVQMGISVIYQDISLFPNLSVAENICIGGQKGLFIKWKQVFETARSALIKLGAIDIDPHVPLGEISIGQRQMVALARALTHEARVIIMDEPTSSLSANEIKALYSAIQILKNENKSLIYISHKFEEVFEVADRISVLRDGEMIASKAAWEFDEQSLISMMVGREIRFLPMRNDGVAGKKLLEVRGLTKEPLFRNISFSLYENEILGITGLVGAGRSEMAQTLFGLEKADKGRIFMGEKELSIKSAVDAIKSGICYLPEDRRGQGIFLIQSMARNITTAKLESILNRCRLLSRPKEMAVSEYYMDRLNIKPRLPDISADKMSGGNQQKLLFSRWLNARPQILIADEPSSGIDVATKAEIHGLLRELAASGVGVILISSDLPETLAVCDRILVMRNGNIVDQTSSKESSQEELIRKGLMG | not soluble
13 | MSQSISLKGSTRTVTEFFEYSINSILYQRGVYPAEDFVTVKKYDLTLLKTHDDELKDYIRKILLQVHRWLLGGKCNQLVLCIVDKDEGEVVERWSFNVQHISGNSNGQDDVVDLNTTQSQIRALIRQITSSVTFLPELTKEGGYTFTVLAYTDADAKVPLEWADSNSKEIPDGEVVQFKTFSTNDHKVGAQVSYKY | soluble
14 | MGSSHHHHHHSSGLVPRGSHMEELQKSIGHKPEPTDEEWELIKTVTEAHVATNAQGSHWKQKRKFLPEDIGQAPIVNAPEGGKVDLEAFSHFTKIITPAITRVVDFAKKLPMFCELPCEDQIILLKGCCMEIMSLRAAVRYDPESETLTLNGEMAVTRGQLKNGGLGVVSDAIFDLGMSLSSFNLDDTEVALLQAVLLMSSDRPGLACVERIEKYQDSFLLAFEHYINYRKHHVTHFWPKLLMKVTDLRMIGACHASRFLHMKVECPTELFPPLFLEVFED | soluble
15 | MAAQLSEIEVKGVKIPLIYEKSTLMPAVNLQIVFTHAGSITDEIPGLASLSARIFNEGTKTLGSVEFAKELENRAISLSVGSGNETLVFDMSALKSEYLEGLRLTRELLRQPNFTKEALSKVKTDIKASLLRKESDFDYVAQVELHRRLFEGTPLEYPSMGNRESIEKITLKEVEEFWKKRGVLRRAIVLVGGDVELEEVKKDLLSLLSVLPLGEEGELVRYEAKGDLEVKSVIKNTQQAYIYFGSPFSVKNLREDSYKAKVAAFVLGSSGFGSRMMEEIRVKRGLAYSAYWRISLSKSVNYSLGYLQTKLENEQQAIGVVRELIEEFLQKGITEKELEGAKQFLLGSEPLRNETLSQRLSSAFSAYYRGLPLDFAKEELHKIEALTLEEINAYIKEHQELLQLSFSVVTAPKE | not soluble
16 | MVVPGKNSTISPDYFTASQTSPLDMMKFPSPGSSKRYDNGGGIGLGIVAALEKSSIGINPVCHTGAGSKGFDLARYSKRFQFAAGIDLSDSEEYTCVTTRDGLTKVYYKEEEFEFGHNLLNGDQRWRKPIEIAEESPAKERRVLRDCPDFLTSCCLCKKKLQGKDIYMYKGDEGFCSKECRSLKIMEDSLKEQHKLTSVEVLTGEEIASPGIFLI | soluble
17 | MSDNKESKKISIEIDGKDYQALPNQSIIEVADANGIYIPRFCYHKKLSVAANCRMCLVDVEGARRASPACATPVMDGMKVKTRSEEALQMQKDVMEFLLINHPLDCPICDQGGECELQDIAMGYGNTTSEYLESKRTVEDPELGPLVATDMTRCILCTRCVRFGEEIAGVKELGVMGRGDHSAISTYISGEMVDSEISANIIDLCPVGALTSKPFRFKARSWELKQFPTLSAGDALATEINAHIYQNKLVRVVPRENDITGTWIADRDRFEYTGLYSQDRIQQPMIKKTGDWVDLSWEEALDFVKVAIQKTIEKDGADAISAIVSETATSEEMYLTKKLLAAVGSVNIDARVRQYADIPGISAGKGLSCSLEDIRESDFILVFGSNIRKEYPLVNIAIKDAVEKNAAKAVAWNVCDYNFNYDIKQVRLAADNIQYIALSLLKAIFVRANLPYGDLDEILRKVDPAAEVRDVADRIVAAKAPKIIIGQDIVNTSGFETVFSILDVLEKVTSVRGGVLATNVNSVAADRIFSSSKSKFSTYKCLNGRTNTKLLLTVHTELAKDSLYGEQKLRNALENIDIVVSFTAFADKFTKDTADIILPIATHYETSGSFVDLFGNRKEFKQVVKPYAGNKELWRVLRVLGNLLELEGFDYNSIAEVTNDAYATRARVGVNHVTQILNANLDYQKEVAFVASNSMYSTTSLLRRAEPLQKTTDAKRFAGVRISQELADEIGLKGQSGVIKIYNIDNEINPEVVVDPSLQAKNIMLPRALFKDFLSSDNISIKLVEEER | not soluble
18 | MGSDKIHHHHHHMRIFFLDQSGKPGGAELCLIDIAKPYSHSALVGLFADGPFKDLLEQNHIPVEILATQTIQVSKESSLAQGLKSLGQLAPLITKVIKKAREYDLIYANTQKALVVGALASFFSRRPLVYHLHDILSTEHFSQTNLRIAINLANRCASLVIANSQASKTAFIQAGGRSDIVEVVYNGFDLKIYQTDEPGINQLQQKLGLQGKFVVGHFSRLAPWKGQHILIDALAKCPPEVTVILVGDALFGEQDYAQKLHKQVTDLGLENRVKFLGFRSDIPQLMAACDLVAHTSTSPEPFGRVIVEAMLCGKPVVAAKAGGVMELVEHGLNGFLVTPGEPQELAQVIITCLQETEITATIANNARTTASRRFDVATINQQIAQLLSHRF | not soluble
19 | SLFKVGKVSYLNTLPLFYSLEGFEVVEGVPSELVEKLRRGEIHAGIVSSVEYFFNPQDYFILSGISISSRGSVCSVKLFSNEPMEKIREVNITKASLTSRELLFYLFEKKFGFVPKESEEAQAKLLIGDEAMEQKGYKFVYDLGEEWFKLHGLPFVFALFLVKRDADISKAKFLKKEIKKSVKNFFEEGIKNIKNKEYFKNCLDYSLGGEHIKSLINFYAYLSRKFKKQVPKLKFVL | soluble

— the DeepSol protein solubility set
